Reference: US20250129156A1 (AKESO BIOPHARMA, published 2025)

Experiments:
TGF-β1 [1] = target: T1, TGF-β1 (human, UniProt P01137 279-390); assay: indirect ELISA, TGF-β1 coated at 1 µg/mL
T1 construct: Bought protein; also called human TGF-β1; TGF-β1 protein

TGF-β1 [2] = target: T1, TGF-β1; assay: competition ELISA vs TGF-βRII-His-Biotin 0.01 µg/mL on coated TGF-β1
TGF-β2 = target: T2, TGF-β2 (UniProt P61812 303-414); assay: indirect ELISA, TGF-β2 coated at 2 µg/mL
T2 construct: Bought protein; also called TGF-β2 protein
T2 sequence (looked up): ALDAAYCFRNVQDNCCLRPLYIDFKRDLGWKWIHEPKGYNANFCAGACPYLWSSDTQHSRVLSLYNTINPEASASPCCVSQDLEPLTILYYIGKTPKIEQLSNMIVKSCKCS

EC50 (TGF-β1 [1]): 0.356 nM
EC50 (TGF-β1 [2]): 6.47 nM
EC50 (TGF-β2): 1.03 nM
B1: TGF-βRII-mFc (Fc fusion, UniProt P37173 23-159, looked up, not shown: a dimerising Fc or GST)
chain: TIPPHVQKSVNNDMIVTDNNGAVKFPQLCKFCDVRFSTCDNQKSCMSNCSITSICEKPQEVCVAVWRKNDENITLETVCHDPKLPYHDFILEDAASPKCIMKEKKKPGETFFMCSCSSDECNDNIIFSEEYNTSNPD
notes: also called TGF-βR2-mFc
